Reference: US20100222258A1 (KABUSHIKI KAISHA HAYASHIBARA SEIBUTSU KAGAKU KENKYUJO, published 2010)
Residue numbers refer to the chain shown, from its start. Blank lines part the entries; values can stand above or below the binder they belong to.

Key:
[1] = biological target: T1, TNF-R1 (a protein having the amino acid sequence, Accession No. M58286 registered at GENBANK) (UniProt P19438 30-211, limits assumed); assay: SPR (BIACORE 2000), receptor on sensor tip; grade 1 = 0.001 to 0.1 time that of recombinant TNF-α
T1 construct: also called TNF receptor having a molecular weight of 55 kilo daltons
T1 sequence (looked up): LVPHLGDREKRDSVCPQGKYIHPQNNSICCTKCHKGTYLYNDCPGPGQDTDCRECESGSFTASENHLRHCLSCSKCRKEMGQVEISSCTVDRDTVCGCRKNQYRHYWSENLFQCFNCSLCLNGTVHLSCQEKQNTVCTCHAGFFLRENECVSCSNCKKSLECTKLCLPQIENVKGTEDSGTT
Source text: (§1) Using the above detector based on surface plasmon resonance effect again, the resulting clones binding to TNF-R1 (or TNF-R2) were subjected to the remaining sensor tip conjugated with TNF-R2 (or TNF-R1) to measure receptor binding affinity and select clones having a variation of receptor binding affinity. […] The resulting DNAs were digested with restrict enzymes NdeI and BamHI to obtain DNA fragments. The resulting DNA fragments were introduced into a plasmid vector containing T7 promoter region, T7 terminator region, ampicillin resistant gene region and ColE1/Ori region (product name “pET-3a”, manufactured by “Novagen®” (EMD Biosciences, Inc.)) at the position of the above restriction sites. The resulting plasmid was introduced into E. coli BL21DE3 strain to obtain a transformed E. coli for producing the TNF mutant proteins. The obtained transformed E. coli was cultured according to usual method and centrifuged to collect E. coli pellet. The resulting pellet was washed twice with TES buffer (pH 8.0) (20 mM Tris-HCl, 10 mM ethylene diamine tetraacetic acid and 0.5 M sodium chloride) and admixed with TES buffer (pH 8.0) containing 0.2 mg/ml lysozyme. The resulting suspension was sonicated according to usual manner, and centrifuged to collect a precipitate containing the produced TNF mutant protein. The resulting precipitate was treated three times in a manner of admixing with TES buffer containing 1 (w/w) % Triton X-100, removed from supernatant by centrifuging, admixed with 50 mM Tris-HCl (pH 7.0) containing 8 M guanidine hydrochloride and 50 mM dithiothreitol, with stirring for 16 hours at ambient temperature under shielded condition, and centrifuged to collect a supernatant. The resulting supernatant was gently admixed with 100 time volumes of a aqueous solution containing 1 M Tris, 0.9 (w/v) % sodium chloride, 0.4 M L-arginine chloride, 2.5 mM reduced glutathione, 0.5 mM oxidized glutathione and 0.05 (w/v) % Tween 20, and kept at 4° C. for 16 hours.

[2] = biological target: T2, TNF-R2 (a protein having the amino acid sequence, Accession No. M55994 registered at GENBANK) (UniProt P20333 23-257, limits assumed); assay: SPR (BIACORE 2000), receptor on sensor tip; grade 4 = two times or more that of recombinant TNF-α
T2 construct: also called TNF receptor with 75 kilo daltons
T2 sequence (looked up): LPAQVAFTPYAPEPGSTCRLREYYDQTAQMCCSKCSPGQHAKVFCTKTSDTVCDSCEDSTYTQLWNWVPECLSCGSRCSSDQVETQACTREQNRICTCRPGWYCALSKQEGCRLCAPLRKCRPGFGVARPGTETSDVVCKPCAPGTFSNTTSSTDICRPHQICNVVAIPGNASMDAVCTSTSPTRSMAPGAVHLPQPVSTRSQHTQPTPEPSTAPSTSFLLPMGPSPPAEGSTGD
Source text: as §1

[3] = biological target: T1, TNF-R1 (a protein having the amino acid …); assay: SPR (BIACORE 2000), receptor on sensor tip; grade 2 = 0.5 to 0.1 time that of recombinant TNF-α
Source text: as §1

[4] = biological target: T1, TNF-R1 (a protein having the amino acid …); assay: SPR (BIACORE 2000), receptor on sensor tip; grade 4 = two times or more that of recombinant TNF-α
Source text: as §1

TNF-R1 on HEp-2 cells = biological target: T3, TNF-R1 on HEp-2 cells (human, UniProt P19438 30-455); assay: cell-based or functional assay
T3 sequence (looked up): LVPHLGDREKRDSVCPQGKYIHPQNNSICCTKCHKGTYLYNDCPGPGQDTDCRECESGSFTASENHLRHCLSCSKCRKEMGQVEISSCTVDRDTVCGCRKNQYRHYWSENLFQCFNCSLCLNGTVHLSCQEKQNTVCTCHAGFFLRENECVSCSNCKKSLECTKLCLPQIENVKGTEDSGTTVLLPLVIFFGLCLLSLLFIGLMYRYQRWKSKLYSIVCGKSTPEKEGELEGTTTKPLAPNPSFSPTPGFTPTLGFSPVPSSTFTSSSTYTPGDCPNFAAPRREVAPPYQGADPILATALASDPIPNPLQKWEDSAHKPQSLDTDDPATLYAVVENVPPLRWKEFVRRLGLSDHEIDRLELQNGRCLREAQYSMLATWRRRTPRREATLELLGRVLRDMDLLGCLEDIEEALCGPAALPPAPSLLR

TNF-R1 on L-M cells = biological target: T4, TNF-R1 on L-M cells (mouse, UniProt P25118 30-454); assay: cell-based or functional assay
T4 sequence (looked up): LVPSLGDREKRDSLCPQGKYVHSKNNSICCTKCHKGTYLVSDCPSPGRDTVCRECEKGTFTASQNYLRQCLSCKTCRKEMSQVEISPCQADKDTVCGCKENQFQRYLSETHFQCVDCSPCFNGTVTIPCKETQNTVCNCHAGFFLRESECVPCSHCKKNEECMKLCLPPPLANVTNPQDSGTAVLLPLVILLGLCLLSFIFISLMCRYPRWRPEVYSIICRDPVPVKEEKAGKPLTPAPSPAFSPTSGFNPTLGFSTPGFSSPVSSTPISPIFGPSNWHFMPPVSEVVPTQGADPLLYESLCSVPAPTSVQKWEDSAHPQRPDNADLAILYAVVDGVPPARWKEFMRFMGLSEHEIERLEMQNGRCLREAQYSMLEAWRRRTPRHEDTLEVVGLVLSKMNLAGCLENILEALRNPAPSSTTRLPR

[5] = biological target: T2, TNF-R2 (a protein having the amino acid …); assay: SPR (BIACORE 2000), receptor on sensor tip; grade 0 = weakened to 0.001 or less of that of recombinant TNF-α
Source text: as §1

[6] = biological target: T2, TNF-R2 (a protein having the amino acid …); assay: SPR (BIACORE 2000), receptor on sensor tip; grade 3 = 0.5 to 2 times that of recombinant TNF-α
Source text: as §1

[7] = biological target: T1, TNF-R1 (a protein having the amino acid …); assay: SPR (BIACORE 2000), receptor on sensor tip; grade 0 = weakened to 0.001 or less of that of recombinant TNF-α
Source text: as §1

B1: TNF mutant protein of clone No. 10 (ligand)
chain: VRSSSRTPSDMPVAHVVANPQAEGQLQWLNRRANALLANGVELRDNQLVVPSEGLYLIYSQVLFSGQGCPSTHVLLTHTISRIAVSYQTPVNLLSAIRSPCQRETPEGAEANPWYEPIYLGGVFQLEPGDRLSAEINRPDYLDFKDTGQVYFGIIAL
notes: Mutant of lysine-replaced TNF, made in E. coli
- binding affinity relative to recombinant TNF-α [1]: 0.001 to 0.1 fold
- binding affinity relative to recombinant TNF-α [2]: ≥ 2 fold

B4: TNF mutant protein of clone No. 12 (ligand)
chain: B1 chain with K145R, D146E
notes: as for B1
- binding affinity relative to recombinant TNF-α [1]: 0.001 to 0.1 fold
- binding affinity relative to recombinant TNF-α [6]: 0.5 to 2 fold

B5: TNF mutant protein of clone No. 11 (ligand)
chain: B1 chain with K145R, D146T, T147D
notes: as for B1
- binding affinity relative to recombinant TNF-α [6]: 0.5 to 2 fold
- binding affinity relative to recombinant TNF-α (grade) [7]: ≤ 0.001 times that of recombinant TNF-α

More lines, main results first:

- binding affinity relative to recombinant TNF-α [3]: 0.1 to 0.5 fold
- binding affinity relative to recombinant TNF-α [2]: ≥ 2 fold
B2: TNF mutant protein of clone No. 13 (ligand)
chain: B1 chain with K145A, T147D
notes: as for B1

- binding affinity relative to recombinant TNF-α [4]: ≥ 2 fold
- binding affinity relative to recombinant TNF-α (grade) [5]: ≤ 0.001 times that of recombinant TNF-α
B3: TNF mutant protein of clone No. 35 (ligand)
chain: B1 chain with A84T, V85P, S86A, Y87I, Q88N, T89R, K145A, D146E, T147S
notes: Mutant of lysine-replaced TNF, made in E. coli; also called TNF antagonist of clone No. 35
- Viability (%) of HEp-2 cells, 10 ng/ml TNF-α + 1,000 ng/ml TNF antagonist (9 without antagonist) (TNF-R1 on HEp-2 cells): 10%
- Viability (%) of HEp-2 cells, 10 ng/ml TNF-α + 10,000 ng/ml TNF antagonist (9 without antagonist) (TNF-R1 on HEp-2 cells): 18%
- Viability (%) of HEp-2 cells, 10 ng/ml TNF-α + 100,000 ng/ml TNF antagonist (9 without antagonist) (TNF-R1 on HEp-2 cells): 86%
- Viability (%) of HEp-2 cells, 10 ng/ml TNF-α + 500,000 ng/ml TNF antagonist (9 without antagonist) (TNF-R1 on HEp-2 cells): 103%
- Viability (%) of L-M cells, 10 ng/ml TNF-α + 1,000 ng/ml TNF antagonist (17 without antagonist) (TNF-R1 on L-M cells): 43%
- Viability (%) of L-M cells, 10 ng/ml TNF-α + 10,000 ng/ml TNF antagonist (17 without antagonist) (TNF-R1 on L-M cells): 58%
- Viability (%) of L-M cells, 10 ng/ml TNF-α + 100,000 ng/ml TNF antagonist (17 without antagonist) (TNF-R1 on L-M cells): 61%
- Viability (%) of L-M cells, 10 ng/ml TNF-α + 500,000 ng/ml TNF antagonist (17 without antagonist) (TNF-R1 on L-M cells): 64%
